B1: TetR (I194T, 1-206)-CIB1 (-NLS) fusion construct as released from the TetR (I194T, 1-206)-CIB1 (-NLS)-T2A-Cry2 PHR (L348F)-p65AD-NLSx2 fusion construct (protein, part only)
chain: MARLDKSKVINSALELLNEVGIEGLTTRKLAQKLGVEQPTLYWHVKNKRALLDALAIEMLDRHHTHFCPLEGESWQDFLRNNAKSFRCALLSHRDGAKVHLGTRPTEKQYETLENQLAFLCQQGFSLENALYALSAVGHFTLGCVLEDQEHQVAKEERETPTTDSMPPLLRQAIELFDHQGAEPAFLFGLELITCGLEKQLKCESGSPKKKHMEFNGAIGGDLLLNFPDMSVLERQRAHLKYLNPTFDSPLAGFFADSSMITGGEMDSYLSTAGLNLPMMYGETTVEGDSRLSISPETTLGTGNFKAAKFDTETKDCNEAAKKMTMNRDDLVEEGEEEKSKITEQNNGSTKSIKKMKHKAKKEENNFSNDSSKVTKELEKTDYI
modifications: residual T2A residues at C-terminus
B2: rTetR (I194T, M2 mutation, 1-206)-CIB1 (-NLS) from the T2A construct (protein, part only; not given: Leftover T2A residues, part only)
chain, part: MARLDKSKVINGALELLNGVGIEGLTTRKLAQKLGVEQPTLYWHVKNKRALLDALPIEMLDRHHTHFCPLEGESWQDFLRNNAKSFRCALLSHRDGAKVHLGTRPTEKQYETLENQLAFLCQQGFSLENALYALSAVGHFTLGCVLEEQEHQVAKEERETPTTDSMPPLLRQAIELFDRQGAEPAFLFGLELITCGLEKQLKCESGSPKKKHMEFNGAIGGDLLLNFPDMSVLERQRAHLKYLNPTFDSPLAGFFADSSMITGGEMDSYLSTAGLNLPMMYGETTVEGDSRLSISPETTLGTGNFKAAKFDTETKDCNEAAKKMTMNRDDLVEEGEEEKSKITEQNNGSTKSIKKMKHKAKKEENNFSNDSSKVTKELEKTDYI
B3: rTetR (I194T, V16 mutation, 1-206)-CIB1 (-NLS) from the T2A construct (protein, part only; not given: Leftover T2A residues, part only)
chain, part: MARLDKSKIINSALELLNGVGIEGLTTRKLAQKLGVEQPTLYWHVKNKRALLDALPIEMLDRHHTHSCPLEGESWQDFLRNNAKSYRCALLSHRDGAKVHLGTRPTEKQYETLENQLAFLCQQGFSLENALYALSAVGHFTLGCVLEEQEHQVAKEERETPTTDSMPPLLKQAIELFDRQGAEPAFLFGLELITCGLEKQLKCESGSPKKKHMEFNGAIGGDLLLNFPDMSVLERQRAHLKYLNPTFDSPLAGFFADSSMITGGEMDSYLSTAGLNLPMMYGETTVEGDSRLSISPETTLGTGNFKAAKFDTETKDCNEAAKKMTMNRDDLVEEGEEEKSKITEQNNGSTKSIKKMKHKAKKEENNFSNDSSKVTKELEKTDYI
B4: TetR (I194T, H100Y, 1-206)-CIB1 (-NLS) from the T2A construct (protein, part only)
chain: MARLDKSKVINSALELLNEVGIEGLTTRKLAQKLGVEQPTLYWHVKNKRALLDALAIEMLDRHHTHFCPLEGESWQDFLRNNAKSFRCALLSHRDGAKVYLGTRPTEKQYETLENQLAFLCQQGFSLENALYALSAVGHFTLGCVLEDQEHQVAKEERETPTTDSMPPLLRQAIELFDHQGAEPAFLFGLELITCGLEKQLKCESGSPKKKHMEFNGAIGGDLLLNFPDMSVLERQRAHLKYLNPTFDSPLAGFFADSSMITGGEMDSYLSTAGLNLPMMYGETTVEGDSRLSISPETTLGTGNFKAAKFDTETKDCNEAAKKMTMNRDDLVEEGEEEKSKITEQNNGSTKSIKKMKHKAKKEENNFSNDSSKVTKELEKTDYI
modifications: T2A residues at C-terminus
B5: rTetR (I194T, rtTA mutation, 1-206)-CIB1 (-NLS) from the T2A construct (protein, part only; not given: Leftover T2A residues, part only)
chain, part: MARLDKSKVINSALELLNEVGIEGLTTRKLAQKLGVEQPTLYWHVKNKRALLDALAIEMLDRHHTHFCPLKGESWQDFLRNNAKSFRCALLSHRNGAKVHSDTRPTEKQYETLENQLAFLCQQGFSLENALYALSAVGHFTLGCVLEDQEHQVAKEERETPTTDSMPPLLRQAIELFDHQGAEPAFLFGLELITCGLEKQLKCESGSPKKKHMEFNGAIGGDLLLNFPDMSVLERQRAHLKYLNPTFDSPLAGFFADSSMITGGEMDSYLSTAGLNLPMMYGETTVEGDSRLSISPETTLGTGNFKAAKFDTETKDCNEAAKKMTMNRDDLVEEGEEEKSKITEQNNGSTKSIKKMKHKAKKEENNFSNDSSKVTKELEKTDYI
B6: rTetR (I194T, V10 mutation, 1-206)-CIB1 (-NLS) from the T2A construct (protein, part only; not given: Leftover T2A residues, part only)
chain, part: MARLDKSKVINSALELLNGVGIEGLTTRKLAQKLGVEQPTLYWHVKNKRALLDALPIEMLDRHHTHSCPLEGESWQDFLRNNAKSYRCALLSHRDGAKVHLGTRPTEKQYETLENQLAFLCQQGFSLENALYALSAVGHFTLGCVLEEQEHQVAKEERETPTTDSMPPLLKQAIELFDRQGAEPAFLFGLELITCGLEKQLKCESGSPKKKHMEFNGAIGGDLLLNFPDMSVLERQRAHLKYLNPTFDSPLAGFFADSSMITGGEMDSYLSTAGLNLPMMYGETTVEGDSRLSISPETTLGTGNFKAAKFDTETKDCNEAAKKMTMNRDDLVEEGEEEKSKITEQNNGSTKSIKKMKHKAKKEENNFSNDSSKVTKELEKTDYI
B7: rTetR (I194T, S2 mutation, 1-206)-CIB1 (-NLS) from the T2A construct (protein, part only; not given: Leftover T2A residues, part only)
chain, part: MARLDKSKVINSALELLNGVGIEGLTTRKLAQKLGVEQPTLYWHVKNKRALLDALPIEMLDRHHTHFCPLEGESWQDFLRNNAKSFRCALLSHRDGAKVHLGTRPTEKQYETLENQLAFLCQQGFSLENALYALSAVGHFTLGCVLEEQEHQVAKEERETPTTDSMPPLLRQAIELFDRQGAEPAFLFGLELITCGLEKQLKCESGSPKKKHMEFNGAIGGDLLLNFPDMSVLERQRAHLKYLNPTFDSPLAGFFADSSMITGGEMDSYLSTAGLNLPMMYGETTVEGDSRLSISPETTLGTGNFKAAKFDTETKDCNEAAKKMTMNRDDLVEEGEEEKSKITEQNNGSTKSIKKMKHKAKKEENNFSNDSSKVTKELEKTDYI

biological target: Cry2 PHR (L348F)-p65AD-NLSx2 fusion construct as released from the TetR (I194T, 1-206)-CIB1 (-NLS)-T2A-Cry2 PHR (L348F)-p65AD-NLSx2 fusion construct; test: cell-based or functional assay
Sequence (Q96524 other isoform, or with tags, fused parts or gaps L348F I194T L348F L348F I194T L348F): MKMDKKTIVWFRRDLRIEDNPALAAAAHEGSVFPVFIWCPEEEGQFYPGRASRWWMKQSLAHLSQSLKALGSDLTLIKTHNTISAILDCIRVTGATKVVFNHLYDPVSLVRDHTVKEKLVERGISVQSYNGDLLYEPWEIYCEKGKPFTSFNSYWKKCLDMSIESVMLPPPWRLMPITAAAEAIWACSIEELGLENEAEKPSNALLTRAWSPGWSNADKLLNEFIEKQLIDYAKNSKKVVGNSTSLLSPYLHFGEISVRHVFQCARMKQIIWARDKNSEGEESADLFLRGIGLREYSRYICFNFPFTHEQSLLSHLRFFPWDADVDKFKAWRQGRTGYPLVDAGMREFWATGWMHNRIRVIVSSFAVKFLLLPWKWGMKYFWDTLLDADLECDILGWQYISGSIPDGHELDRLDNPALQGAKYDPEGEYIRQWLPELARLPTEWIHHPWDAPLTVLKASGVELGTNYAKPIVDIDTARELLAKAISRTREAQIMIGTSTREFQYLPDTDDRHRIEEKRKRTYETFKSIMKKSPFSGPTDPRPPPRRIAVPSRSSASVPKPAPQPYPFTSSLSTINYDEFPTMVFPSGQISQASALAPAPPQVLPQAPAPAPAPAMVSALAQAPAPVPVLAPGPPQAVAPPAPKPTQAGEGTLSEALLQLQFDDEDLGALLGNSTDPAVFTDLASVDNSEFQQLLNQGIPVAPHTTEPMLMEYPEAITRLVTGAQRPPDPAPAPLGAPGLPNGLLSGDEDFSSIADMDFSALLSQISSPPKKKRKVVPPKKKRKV

Binder | Average of the Light/Dark ratio, Dox 0 ng/mL | Average of the Light/Dark ratio, Dox 0 ng/mL, 36 h light | Average of the Light/Dark ratio, Dox 75 ng/mL | Average of the Light/Dark ratio, Dox 500 ng/mL, 36 h light | Light/Dark, Dox 0 ng/mL | Light/Dark, Dox 0 ng/mL, 36 h light | Light/Dark, Dox 75 ng/mL | Light/Dark, Dox 500 ng/mL, 36 h light | Ub-ELuc luciferase, Dark, Dox 0 ng/mL [relative] | Ub-ELuc luciferase, Dark, Dox 0 ng/mL, 36 h light [relative]
B1 | 19 | 2780 | 1.1 | 0.2 | 36.2 | 525 | 0.9 | 0.2 | 4 | 15.4
B2 | 1.4 | – | 31.6 | – | 1.1 | – | 38.4 | – | 0.3 | –
B3 | 1.5 | – | 15.8 | – | 1.6 | – | 26.4 | – | 0.2 | –
B4 | 19 | – | 19.4 | – | 30.6 | – | 22.7 | – | 2.6 | –
B5 | 3.2 | – | 22.5 | – | 3.5 | – | 3.4 | – | 0.2 | –
B6 | 1.3 | 9.6 | 32.8 | 959 | 1.1 | 9.2 | 42.7 | 412 | 0.2 | 3.6
B7 | 2.2 | – | 17 | – | 3.1 | – | 3.1 | – | 0.2 | –

same assay, conditions: not given

Binder | Ub-ELuc luciferase, Dark, Dox 75 ng/mL [relative] | Ub-ELuc luciferase, Dark, Dox 500 ng/mL, 36 h light [relative] | Ub-ELuc luciferase, Light, Dox 0 ng/mL [relative] | Ub-ELuc luciferase, Light, Dox 0 ng/mL, 36 h light [relative] | Ub-ELuc luciferase, Light, Dox 75 ng/mL [relative] | Ub-ELuc luciferase, Light, Dox 500 ng/mL, 36 h light [relative]
B1 | 0.1 | 9.9 | 76.7 | 8090 | 0.1 | 1.8
B2 | 0.3 | – | 0.3 | – | 12.7 | –
B3 | 5.9 | – | 0.3 | – | 76.7 | –
B4 | 3.1 | – | 58.1 | – | 41.4 | –
B5 | 0.1 | – | 0.5 | – | 0.4 | –
B6 | 1.2 | 22.8 | 0.2 | 25.3 | 51.7 | 9140
B7 | 0.2 | – | 0.5 | – | 0.7 | –
